{"source": "paper PMC1635724", "target": "6His-PfJ (4.1R binding region of Plasmodium falciparum erythrocyte binding antigen-181, aa 945-1097) (P. falciparum) (UniProt Q8I2B4)", "assay": "pull-down; ~700 ng 6His-PfJ coupled to His-Select magnetic beads, GST-4.1R domain (150 ng to 2 μg; heat denatured protein as control) added for 1 hr at room temperature, rinsed with TBS, eluted with 1% SDS, SDS-PAGE with scanning densitometry; Kd a rough estimate from linear transformations of three curves"}
{"substance": "GST-10 kDa domain of human erythrocyte protein 4.1 (4.1R) (domain or fragment)", "values": [{"measurement": "Kd", "result": 745, "unit": "nM"}]}
